Experimental data from patent USRE49026 (MEDICAL DIAGNOSTIC LABORATORIES, dated 2022).
Bridges are numbered along the chain shown (N, C = ends). Where no end group is shown, it is not given here.

T1: human IL-23R expressed on the cell surface (human, UniProt Q5VWK5 24-629)
T1 sequence (looked up): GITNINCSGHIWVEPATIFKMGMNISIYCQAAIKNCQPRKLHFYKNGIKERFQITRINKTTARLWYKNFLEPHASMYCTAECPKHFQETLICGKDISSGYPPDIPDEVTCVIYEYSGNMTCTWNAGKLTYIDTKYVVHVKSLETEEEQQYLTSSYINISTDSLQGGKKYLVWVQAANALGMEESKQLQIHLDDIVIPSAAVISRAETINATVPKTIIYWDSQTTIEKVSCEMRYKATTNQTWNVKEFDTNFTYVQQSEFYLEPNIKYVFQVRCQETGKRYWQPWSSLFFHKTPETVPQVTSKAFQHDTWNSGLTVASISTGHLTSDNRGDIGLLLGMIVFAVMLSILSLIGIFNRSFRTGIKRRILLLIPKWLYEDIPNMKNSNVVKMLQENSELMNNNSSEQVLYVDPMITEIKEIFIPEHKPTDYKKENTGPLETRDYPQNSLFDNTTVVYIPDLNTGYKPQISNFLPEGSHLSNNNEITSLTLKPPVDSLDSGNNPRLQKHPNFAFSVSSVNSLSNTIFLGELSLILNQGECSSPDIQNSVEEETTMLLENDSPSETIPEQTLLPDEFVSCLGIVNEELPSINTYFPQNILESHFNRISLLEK

T2: recombinant mouse IL-23R-Fc (mouse, UniProt Q8K4B4 24-374, limits assumed)
T2 construct: whole entry named; not shown: Fc part, not described
T2 sequence (looked up): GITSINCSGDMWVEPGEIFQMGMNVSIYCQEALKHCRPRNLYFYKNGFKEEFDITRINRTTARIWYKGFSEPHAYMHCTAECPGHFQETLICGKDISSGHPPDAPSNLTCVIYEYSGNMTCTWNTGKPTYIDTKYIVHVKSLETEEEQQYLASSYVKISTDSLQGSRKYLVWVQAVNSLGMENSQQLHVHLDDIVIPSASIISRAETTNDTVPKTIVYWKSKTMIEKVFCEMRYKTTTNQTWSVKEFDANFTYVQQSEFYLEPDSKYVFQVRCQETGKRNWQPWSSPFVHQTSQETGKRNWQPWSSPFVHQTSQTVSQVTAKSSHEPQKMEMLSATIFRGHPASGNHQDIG

T3: WT IL-23 cytokine (wild type p19 + p40, expressed in 293T cells) (human, UniProt Q9NPF7 20-189; P29460 23-328)
T3 construct: conditioned medium in the ELISAs; purified on HisTALON for the reporter assay; also called isolated WT IL-23 cytokine; not shown: 6xHis tag at the C-terminus
T3 sequence (looked up) 1: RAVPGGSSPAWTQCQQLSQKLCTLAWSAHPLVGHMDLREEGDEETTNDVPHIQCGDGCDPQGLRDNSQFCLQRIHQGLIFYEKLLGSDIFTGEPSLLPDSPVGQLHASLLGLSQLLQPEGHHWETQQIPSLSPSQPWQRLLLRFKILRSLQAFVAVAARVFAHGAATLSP
T3 sequence (looked up) 2: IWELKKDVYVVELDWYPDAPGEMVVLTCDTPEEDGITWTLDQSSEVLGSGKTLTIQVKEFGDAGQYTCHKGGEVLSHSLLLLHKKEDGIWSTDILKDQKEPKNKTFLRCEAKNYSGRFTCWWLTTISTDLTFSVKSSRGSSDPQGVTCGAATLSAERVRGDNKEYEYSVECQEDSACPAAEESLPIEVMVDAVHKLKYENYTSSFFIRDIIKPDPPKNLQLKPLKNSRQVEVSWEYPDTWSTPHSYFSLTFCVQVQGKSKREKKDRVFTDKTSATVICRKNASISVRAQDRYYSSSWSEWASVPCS

B1: recombinant human IL-23 (ligand)
chain 1: T3 sequence (looked up) 1
chain 2: T3 sequence (looked up) 2
B2: cyclic peptide no. 2HT AA (peptide)
peptide: AKMTWVDYWLKNCA
modifications: cyclic: head-to-tail amide bond (alanine to alanine)
notes: cyclised form of linear peptide no; also called cyclic polypeptide no; 2HT AA (Head to Tail: Alanine to Alanine)
B3: recombinant human IL-23R/Fc chimera (Fc fusion, UniProt Q5VWK5 24-353, looked up)
chain: GITNINCSGHIWVEPATIFKMGMNISIYCQAAIKNCQPRKLHFYKNGIKERFQITRINKTTARLWYKNFLEPHASMYCTAECPKHFQETLICGKDISSGYPPDIPDEVTCVIYEYSGNMTCTWNAGKLTYIDTKYVVHVKSLETEEEQQYLTSSYINISTDSLQGGKKYLVWVQAANALGMEESKQLQIHLDDIVIPSAAVISRAETINATVPKTIIYWDSQTTIEKVSCEMRYKATTNQTWNVKEFDTNFTYVQQSEFYLEPNIKYVFQVRCQETGKRYWQPWSSLFFHKTPETVPQVTSKAFQHDTWNSGLTVASISTGHLTSDNRGD
notes: range 24-353; bought (R&D Systems Cat. No. 1400-IR-050); also called rhIL23R-Fc; IL-23R/Fc fusion protein; not shown: human IgG1 Fc, residues 100-330

Experiments:
[1] = target: B3; experiment: phage ELISA on coated IL-23R/Fc, anti-M13 detection
[2] = target: B3; experiment: phage display panning, protein A capture
[3] = target: T1, human IL-23R expressed on the cell …; experiment: cell-based or functional assay
[4] = target: B3; experiment: competitive ELISA against IL-23 (50 ng/well) on coated IL-23R-Fc
[5] = target: B3; experiment: competitive ELISA on coated IL-23R-Fc, 50 µM peptide
[6] = target: T2, recombinant mouse IL-23R-Fc; experiment: competitive ELISA against mouse IL-23 on coated mouse IL-23R-Fc
[7] = target: IL-23 receptor on Sprague Dawley rat splenocytes (rat); experiment: cell-based or functional assay
[8] = target: B3; experiment: cell-free competitive ELISA against IL-23 on coated IL-23R-Fc
[9] = target: T3, WT IL-23 cytokine (wild type p19 + p40, …); experiment: ELISA of conditioned media on coated IL-23R-Fc, anti-p40 detection

AETPSWYNYWMN (peptide, not shown: large carriers, also called nos) [M13 phage displaying polypeptide no. 4]
binding result [1]: binds

AVWQNYWNEQLY (peptide, not shown: large carriers) [M13 phage displaying polypeptide no. 22]
binding result [2]: binds

DQERWLSYFLGT (peptide, not shown: large carriers) [M13 phage displaying polypeptide no. 3]
binding result [2]: binds

DSDWRWFWENHW (peptide, not shown: large carriers) [M13 phage displaying polypeptide no. 15]
binding result [2]: binds

B1
reporter luciferase activity, DB STAT3-Luc cells, 50 ng/ml [3]: ~10 fold

STWQEYYDVWQK (peptide, not shown: large carriers) [M13 phage displaying polypeptide no. 18]
binding result [2]: binds

SGASWVQYWVQR (also called peptide number 1) [synthetic polypeptide no. 1]
relative level of p-STAT3/STAT3 at 50 µM peptide [3]: ~0.6 ratio
relative level of p-STAT3/STAT3 at 100 µM peptide [3]: ~0.3 ratio
relative p-STAT3/STAT3 level at 10 µM, 5 µM and 1 µM peptide [3]: > 1.5 ratio
IC50 [4]: 6250 to 12500 nM

TENWWTMVPRWM (peptide, not shown: large carriers) [M13 phage displaying polypeptide no. 2]
binding result [2]: binds

SGASFVQYWVQR [modified synthetic polypeptide no. 1.1]
OD450 of bound IL-23 with the peptide as competitor [5]: ≥ 0.4 OD450

SGASFVQYFVQR [modified synthetic polypeptide no. 1.3]
OD450 of bound IL-23 with the peptide as competitor [5]: ≥ 0.4 OD450

SGASWVQYFVQR [modified synthetic polypeptide no. 1.2]
OD450 of bound IL-23 with the peptide as competitor [5]: ≥ 0.4 OD450

CAMTWQDYWLYGRC (disulfide 1-14, also called cyc23.15) [cyclic polypeptide no. 23.19]
IC50 [6]: 12500 nM
IC50, DB STAT3-Luc reporter cells, 50 ng/ml IL-23 [3]: 2500 nM

EPFAWHAYWVRN (peptide, not shown: large carriers) [M13 phage displaying polypeptide no. 29]
binding result [2]: binds

DDWMQYWRQQVR [synthetic polypeptide no. 27]
IC50 [4]: ~1560 nM

AWQDVWKMHNKV (peptide, not shown: large carriers) [M13 phage displaying polypeptide no. 25]
binding result [2]: binds

NWIDWWTQSEKH (peptide, not shown: large carriers) [M13 phage displaying polypeptide no. 19]
binding result [2]: binds

MPDWHAFYLQAQ (peptide, not shown: large carriers) [M13 phage displaying polypeptide no. 6]
binding result [1]: binds

YSWEWYATRFVQ (peptide, not shown: large carriers) [M13 phage displaying polypeptide no. 13]
binding result [2]: binds

NWTSQLHTGIST (peptide, not shown: large carriers, also called nos) [M13 phage displaying polypeptide no. 5]
binding result [1]: binds

NWATYWQLRHQT (also called peptide number 9) [synthetic polypeptide no. 9]
IC50 [4]: ~3000 nM

B2
IC50, IL-17F mRNA (qRT-PCR) in rat splenocytes, 200 ng/ml IL-23 [7]: 270 nM
IC50, IL-17F production (ELISA) in differentiated human Th17 cells, 1 ng/ml IL-23 [3]: 339 nM
IC50, IL-22 production (ELISA) in human PBMC, 2 ng/ml IL-23 [3]: 338 nM
IC50, cell-based DB-Luc assay [3]: 342 nM
IC50 [8]: 8.1 nM

AMTWEDWWLYGR (also called peptide number 23) [synthetic polypeptide no. 23]
IC50 [4]: 0 to 1560 nM

B3
binding result [9]: binds

ASWEMYWATSYN (peptide, not shown: large carriers) [M13 phage displaying polypeptide no. 10]
binding result [1]: binds

SALSWEHYWRKH (peptide, not shown: large carriers, also called no) [M13 phage displaying polypeptide no. 20]
binding result [2]: binds

HDWQTYWVTRER (peptide, not shown: large carriers) [M13 phage displaying polypeptide no. 30]
binding result [2]: binds

QSDTWMTYWKHH (peptide, not shown: large carriers) [M13 phage displaying polypeptide no. 7]
binding result [1]: binds

TSWQSFWHHHNT (peptide, not shown: large carriers) [M13 phage displaying polypeptide no. 32]
binding result [2]: binds
